# Assay results from patent publication US20260028403A1 (Zymeworks, published 2026).
# Substitutions are numbered along the chain they refer to. Names may count otherwise.
# B1: v37683 (trispecific antibody, human IgG1, kappa, L234A L235A)
# heavy 1: not shown
# heavy 2: QVQLVESGGGLVQPGGSLRLSCSVSGIDLSSNPMIWVRQAPGKGLQYIGIIDTDGSTYYADWAKGRFTISKDSTTVYLQINSPRAEDTAVYYCARRLHGSSNGYYDDLWGQGTLVTVSSGGGGSGGGGSGGGGSGGGGSDGQMTQSPSSVSASVGDRVTITCQASQSIYSYLSWYQQKPGQRPKLLIYKASTLASGVPSRFSGSGSGTDFTLTISSVQPEDFATYYCQQGYTVTNVDKNTFGGGTKVEIKAAEPKSSDKTHTCPPCPAPEAAGGPSVFLFPPKPKDTLMISRTPEVTCVVVSVSHEDPEVKFNWYVDGVEVHNAKTKPREEQYNSTYRVVSVLTVLHQDWLNGKEYKCKVSNKALPAPIEKTISKAKGQPREPQVYVLPPSRDELTKNQVSLLCLVKGFYPSDIAVEWESNGQPENNYLTWPPVLDSDGSFFLYSKLTVDKSRWQQGNVFSCSVMHEALHNHYTQKSLSLSPG
# light: DIQMTQSPSSLSASVGDRVTITCRASESVEYYVTSLMQWYQQKPGKAPKLLIYAASNVDSGVPSRFSGSGSGTDFTLTISSLQPEDIATYYCQQSRKVPFTFGGGTKVEIKRTVAAPSVFIFPPSDEQLKSGTASVVCLLNNFYPREAKVQWKVDNALQSGNSQESVTEQDSKDSTYSLSSTLTLSKADYEKHKVYACEVTHQGLSSPVTKSFNRGEC
# notes: also called v37638 format, CD28 VH P1058A
# B2: v37684 (trispecific antibody, human IgG1, kappa, L234A L235A)
# heavy 1: not shown
# heavy 2: B1 heavy 2
# light: B1 light
# notes: also called v37638 format, CD28 VH G1064S
# B3: v37685 (trispecific antibody, human IgG1, kappa, L234A L235A)
# heavy 1: not shown
# heavy 2: B1 heavy 2
# light: B1 light with V33G
# notes: also called v37638 format, CD28 VL V1035G
# B4: v37686 (trispecific antibody, human IgG1, kappa, L234A L235A)
# heavy 1: not shown
# heavy 2: B1 heavy 2
# light: B1 light with D59E
# notes: also called v37638 format, CD28 VL D1068E
# B5: v37687 (trispecific antibody, human IgG1, kappa, L234A L235A)
# heavy 1: not shown
# heavy 2: B1 heavy 2
# light: B1 light
# notes: also called v37638 format, CD28 VH E1080K
# B6: v37688 (trispecific antibody, human IgG1, kappa, L234A L235A)
# heavy 1: not shown
# heavy 2: B1 heavy 2
# light: B1 light
# notes: also called v37638 format, CD28 VH Y1110S
# B7: v37637 (trispecific antibody, human IgG1, lambda, L234A L235A)
# heavy 1: not shown
# heavy 2: QVQLVESGGGLVQPGGSLRLSCSVSGIDLSSNPMIWVRQAPGKGLQYIGIIDTDGSTYYADWAKGRFTISKDSTTVYLQINSPRAEDTAVYYCARRLHGSSNGYYDDLWGQGTLVTVSSGGGGSGGGGSGGGGSGGGGSDGQMTQSPSSVSASVGDRVTITCQASQSIYSYLSWYQQKPGQRPKLLIYKASTLASGVPSRFSGSGSGTDFTLTISSVQPEDFATYYCQQGYTVTNVDKNTFGGGTKVEIKGGGGSGEVQLVESGGGLVQPGGSLRLSCAASGVTFNYYGMSWIRQAPGKGLEWVASITSSGGRIYYPDSVKGRFTISRENTQKTLYLQMNSLRAEDTAVYYCTLDGRDGWVAYWGQGTLVTVSSASTKGPSVFPLAPSSKSTSGGTAALGCLVKDYFPEPVTVSWNSGALTSGVHTFPAVLQSSGLYSLSSVVTVPSSSLGTQTYICNVNHKPSNTKVDKKVEPKSCDKTHTCPPCPAPEAAGGPSVFLFPPKPKDTLMISRTPEVTCVVVSVSHEDPEVKFNWYVDGVEVHNAKTKPREEQYNSTYRVVSVLTVLHQDWLNGKEYKCKVSNKALPAPIEKTISKAKGQPREPQVYVLPPSRDELTKNQVSLLCLVKGFYPSDIAVEWESNGQPENNYLTWPPVLDSDGSFFLYSKLTVDKSRWQQGNVFSCSVMHEALHNHYTQKSLSLSPG
# light: NFMLTQPHSVSESPGKTVTISCKRNTGNIGSNYVNWYQQHEGSSPTTIIYRNDKRPDGVSDRFSGSIDRSSKSASLTISNLKTEDEADYFCQSYSSGFIFGGGTKLTVLGQPKAAPSVTLFPPSSEELQANKATLVCLISDFYPGAVTVAWKADSSPVKAGVETTTPSKQSNNKYAASSYLSLTPEQWKSHRSYSCQVTHEGSTVEKTVAPTECS
# notes: Het Fc, FcKO; also called Cldn18.2xCD3xCD28 trispecific
# B8: v37639 (trispecific antibody, human IgG1, kappa, L234A L235A)
# heavy 1: not shown
# heavy 2: B1 heavy 2
# light: DIQMTQSPSSLSASVGDRVTITCRASESVEYYVTSLMQWYQQKPGKAPKLLIYAASNVDSGVPSRFSGSGSGTDFTLTISSLQPEDIATYYCQQSRKVPFTFGGGTKVEIKRTVAAPSVFIFPPSDEQLKSGTASVVCLLNNFYPREAKVQWKVDNALQSGNSQESVTEQDSKDSTYSLSSTLTLSKADYEKHKVYACEVTHQGLSSPVTKSFNRGECGGGGSGNFMLTQPHSVSESPGKTVTISCKRNTGNIGSNYVNWYQQHEGSSPTTIIYRNDKRPDGVSDRFSGSIDRSSKSASLTISNLKTEDEADYFCQSYSSGFIFGGGTKLTVLGGGGSGGGGSGGGGSGGGGSEVQLVESGGGLVQPGGSLRLSCAASGVTFNYYGMSWIRQAPGKGLEWVASITSSGGRIYYPDSVKGRFTISRENTQKTLYLQMNSLRAEDTAVYYCTLDGRDGWVAYWGQGTLVTVSS
# notes: Het Fc, FcKO; also called Cldn18.2xCD28xCD3 trispecific
# B9: v37641 (trispecific antibody, human IgG1, kappa, L234A L235A)
# heavy 1: QVQLVESGGGLVQPGGSLRLSCSVSGIDLSSNPMIWVRQAPGKGLQYIGIIDTDGSTYYADWAKGRFTISKDSTTVYLQINSPRAEDTAVYYCARRLHGSSNGYYDDLWGQGTLVTVSSGGGGSGGGGSGGGGSGGGGSDGQMTQSPSSVSASVGDRVTITCQASQSIYSYLSWYQQKPGQRPKLLIYKASTLASGVPSRFSGSGSGTDFTLTISSVQPEDFATYYCQQGYTVTNVDKNTFGGGTKVEIKGGGGSGQVQLQESGPGLVKPSETLSLTCAVSGFSLTSYGVHWIRQPPGKGLEWLGVIWPGGGTNFNSALMSRLTISEDTSKNQVSLKLSSVTAADTAVYYCARDRAYGNYLYAMDYWGQGTLVTVSSASTKGPSVFPLAPSSKSTSGGTAALGCLVKDYFPEPVTVSWNSGALTSGVHTFPAVLQSSGLYSLSSVVTVPSSSLGTQTYICNVNHKPSNTKVDKKVEPKSCDKTHTCPPCPAPEAAGGPSVFLFPPKPKDTLMISRTPEVTCVVVSVSHEDPEVKFNWYVDGVEVHNAKTKPREEQYNSTYRVVSVLTVLHQDWLNGKEYKCKVSNKALPAPIEKTISKAKGQPREPQVYVYPPSRDELTKNQVSLTCLVKGFYPSDIAVEWESNGQPENNYKTTPPVLDSDGSFALVSKLTVDKSRWQQGNVFSCSVMHEALHNHYTQKSLSLSPGGGGGSGNFMLTQPHSVSESPGKTVTISCKRNTGNIGSNYVNWYQQHEGSSPTTIIYRNDKRPDGVSDRFSGSIDRSSKSASLTISNLKTEDEADYFCQSYSSGFIFGGGTKLTVLGGGGSGGGGSGGGGSGGGGSEVQLVESGGGLVQPGGSLRLSCAASGVTFNYYGMSWIRQAPGKGLEWVASITSSGGRIYYPDSVKGRFTISRENTQKTLYLQMNSLRAEDTAVYYCTLDGRDGWVAYWGQGTLVTVSS
# heavy 2: EPKSSDKTHTCPPCPAPEAAGGPSVFLFPPKPKDTLMISRTPEVTCVVVSVSHEDPEVKFNWYVDGVEVHNAKTKPREEQYNSTYRVVSVLTVLHQDWLNGKEYKCKVSNKALPAPIEKTISKAKGQPREPQVYVLPPSRDELTKNQVSLLCLVKGFYPSDIAVEWESNGQPENNYLTWPPVLDSDGSFFLYSKLTVDKSRWQQGNVFSCSVMHEALHNHYTQKSLSLSPG
# light: B1 light
# notes: second heavy chain is Fc only; Het Fc, FcKO; also called Cldn18.2xCD28xCD3 trispecific
# Biological target: T1, Recombinant human/cynomolgus/rhesus macaque CD28 mouse IgG2a Fc fusion protein (Acro Biosystems) (human/cynomolgus/rhesus macaque, UniProt P10747 19-152)
# T1 construct: bought; also called huCD28
# Assay: SPR, in-format anti-CD28 variants, huCD28
Binder,Fold-change from WT [fold],Kd [nM],koff [s⁻¹],kon [M⁻¹ s⁻¹]
B1,2.2,48.6,0.00466,95800
B2,6.4,143,0.0113,80600
B3,28.4,631,0.029,67900
B4,1.3,28.1,0.00252,89300
B5,2.1,47,0.00475,101000
B6,1.2,25.8,0.00253,97300

# Biological target: T2, Recombinant human CD3 epsilon/delta heterodimer, his tag protein (Acro Biosystems) (human, UniProt P07766 23-126; P04234 22-105)
# T2 construct: bought
# Assay: SPR Biacore T200, CD3 e/d-his on CM5, construct injected, 1:1 model;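 note: measured at 25 °C in HEPES-buffered saline with EDTA and Tween 20 at pH 7.4, values are means of three independent runs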
Binder,Kd [nM],koff [s⁻¹],kon [M⁻¹ s⁻¹]
B7,106,0.0129,121000
B8,492,0.0144,29200
B9,225,0.0134,60800

# Biological target: T3, CD28 on primary human T cells (human, UniProt P10747 19-220)
# Assay: cell-based or functional assay
Binder,"IC50, T cell-dependent cytotoxicity on SNU 601 [pM]","Maximum Killing (%), SNU 601 [%]"
B1,0.25,88.6
B2,0.34,89.3
B3,0.81,88.7
B4,0.09,88.5
B5,0.1,88.5
B6,0.18,87.8

# Biological target: T1, Recombinant human/cynomolgus/rhesus …
# Assay: SPR Biacore T200, CD28-mIgG2a Fc on CM5, construct injected, 1:1 model;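 note: fc fusion captured by amine coupling, run at 25 °C in HEPES buffer pH 7.4, association 140-500 s then dissociation 600-1200 s, values averaged over three independent runs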
# Experimental: All SPR binding experiments were carried out using a BiacoreT200 instrument at 25° C. with 10 mM HEPES, 150 mM NaCl, 3 mM EDTA, and 0.05% Tween 20 at pH 7.4. Recombinant human/cynomolgus/rhesus macaque CD28 mouse IgG2a Fc fusion protein (Acro Biosystems) was covalently immobilized on CM5 sensor chips by amine coupling. Purified antibody constructs to be tested were injected on the sensor chip at 30 μL/min for 140-500 s following a dissociation for 600-1200 s. Resultant kₒₙ, koff and KD values were determined from fitting the sensorgrams using the 1:1 binding model with reported values as the mean of three independent runs.
Binder,Kd [nM],koff [s⁻¹],kon [M⁻¹ s⁻¹]
B7,61.4,0.00692,113000
B8,23.9,0.00201,84100
B9,31.8,0.00206,66500

# Biological target: T3, CD28 on primary human T cells
# Assay: cell-based or functional assay
# Remark: another data set of the same source
Binder,"IL-2 maximum cytokine, T cells alone [pg/mL]","IL-2 maximum cytokine, T cells with SNU 601 cells [pg/mL]","TNFa maximum cytokine, T cells alone [pg/mL]","TNFa maximum cytokine, T cells with SNU 601 cells [pg/mL]"
B1,82.9,4030,25,513
B2,293,3430,56.2,516
B3,190,3400,25,409
B4,388,4180,41,613
B5,170,4140,21.7,412
B6,279,3780,39.6,514
